Reference: article PMC11705820
Residue numbers refer to the chain shown, from its start.

Key:
[1] = molecular target: T1, MexR Gln55Pro Q55P (Pseudomonas aeruginosa clinical isolate Pae d14 Green) (UniProt P52003); assay: EMSA
T1 sequence: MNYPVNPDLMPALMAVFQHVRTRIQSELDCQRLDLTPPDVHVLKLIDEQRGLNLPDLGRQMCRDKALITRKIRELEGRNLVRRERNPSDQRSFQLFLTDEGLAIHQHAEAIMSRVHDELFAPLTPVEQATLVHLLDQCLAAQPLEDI

[2] = molecular target: T2, MexR wild-type (Pseudomonas aeruginosa clinical isolate Pae d1 Green) (UniProt P52003); assay: EMSA
T2 sequence: T1 sequence with P55Q

With “GTTGCATAGCGTTGTCCTCATGAGCGAAAGCGGCCGATGCAGCGTGAAGGCGCTGCACCGGCTCGAAGAAGGCAGGCAAAATACTTACATTCATAGGTGTTTGTAAACGTCCGAAAGCCTCGCGTGAAAACACCTGAAACGTTTTAGCTCGATGGCCGGTTATCCACCCGGCGCCATGGCCCATATTCAGAACCTGAAACAAGGTTGATAAGGTCAACTAAAATAAGCAAAATAGTTGACTGGATCAACCACATTTACATTAGGTTTACTCGGCCAAACCAATGAACTACC (double strand) [mexR-mexAB intergenic region 291 bp]” as the sequence, how does the binding [1] read?
The binding was “no binding”.

And the binding [2]?
The binding was “binds”.
